# Test results published in US20220034872.
# Test system: GST fusion recombinant OCT4 protein
substance,measurement,value
GST fusion recombinant CSNK2A1,"in vitro kinase assay, OCT4 phosphorylation read by SDS-PAGE and western blotting","in the presence of OCT4 and CSNK2A1, OCT4 phosphorylation was recognized by a phosphorylated antibody"
